Bridge positions count the residues as written; N and C are the ends. Ends that are not written are not given here.
Columns and labels:
murine EPO receptor = target: T1, murine EPO receptor (Mus musculus, UniProt P14753); test: EPO dependent cell proliferation assay, FDC-P1/ER cells; assay type: cell-based
T1 construct: expressed in transfected cells; host or cells: FDC-P1/ER cells
T1 sequence (P14753 25-507): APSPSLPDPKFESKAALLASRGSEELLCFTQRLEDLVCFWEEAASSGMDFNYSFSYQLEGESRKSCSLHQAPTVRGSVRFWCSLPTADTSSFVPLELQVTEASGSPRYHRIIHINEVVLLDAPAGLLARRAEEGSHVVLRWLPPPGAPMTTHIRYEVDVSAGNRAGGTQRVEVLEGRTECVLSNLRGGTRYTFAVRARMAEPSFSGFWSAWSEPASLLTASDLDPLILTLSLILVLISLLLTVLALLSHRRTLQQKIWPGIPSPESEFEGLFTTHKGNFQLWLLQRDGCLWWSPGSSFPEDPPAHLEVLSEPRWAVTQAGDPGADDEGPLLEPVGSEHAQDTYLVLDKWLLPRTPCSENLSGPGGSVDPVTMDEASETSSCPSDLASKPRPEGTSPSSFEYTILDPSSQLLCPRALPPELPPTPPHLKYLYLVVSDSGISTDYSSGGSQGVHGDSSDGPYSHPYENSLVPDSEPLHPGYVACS
Experimental: After 24 hours, the cells were counted, resuspended at 800,000 cells/ml and dispensed at 40,000 cells/well. Stock solutions of the peptide dimer (5 mM in PBS) and peptide (10 mM in DMSO) were prepared and dispensed in triplicate to final concentrations of 1×10^-10 M through 1×10^-5 M and adjusted to a final volume of 0.2 ml. […] After a 42 hr incubation at 37° C. (ca. 2 cell doublings) 1 μCi/well of [^3 H] thymidine was added and the incubation continued for 6 hr at which time the cells were harvested and counted to assess [^3 H]thymidine incorporation as a measure of cell proliferation.

BDF1 mice = test: Polycythemic exhypoxic mouse bioassay ([59Fe] incorporation into nascent red blood cells); assay type: in vivo; conditions: on a mole equivalent basis
Experimental: Peptides were assayed for in vivo activity in the polycythemic mouse bioassay adapted from the method described by Cotes and Bangham (1961), Nature 191: 1065-1067. BDF1 mice were allowed to acclimate to ambient conditions for 7-10 days. Body weights were determined for all animals. Low weight animals (<15 grams) were not used. Mice were introduced to hypobaric chambers with a 24 hour conditioning cycle consisting of 0.40% +/-0.02 atm. for 18 hours followed by 6 hours at ambient pressure for a total of 14 days. Following the 14 day period, mice were placed in ambient pressure for 72 hours prior to dosing. […] Peptide sample stock solutions (excluding peptide dimers) were first solubilized in dimethyl sulfoxide (DMSO). Control groups included one group of vehicle alone, and one group of (DMSO) at final concentration of 1%.
Each dose group contained 10 mice. Mice were injected subcutaneously (scruff of neck) with 0.5 ml of the appropriate sample. […]
Mouse body weights were determined twenty four hours following [^59 Fe] administration and the mice were sacrificed forty eight hours following the [^59 Fe] injection. Blood was collected from each animal by cardiac puncture and hematocrits were determined (heparin was used as the anticoagulant). Each blood sample (0.2 ml) was analyzed for [^59 Fe] incorporation using a Packard gamma counter. […]

increase in potency versus parent peptide, murine receptor line (murine EPO receptor): 10 fold
Substance: peptide (SEQ ID NO: 8)/PEG-dimer: PEG dimer of peptide SEQ ID NO: 8, lot not stated for the in vivo bioassay (GGTYSCHFGPLTWVCKPQGG-NH2; disulfide 6-15 (inferred); also: PEG covalent dimer)
in vivo activity of dimer relative to monomer (BDF1 mice): about 10 fold

— US5767078A, “Agonist peptide dimers” (priority 1995, dated 1998)
